Measured values reported in patent US20240182536A1 (MURAL ONCOLOGY, published 2024).
Residue numbers refer to the chain shown, from its start. Names and notes keep the numbering of the source.

B1: IL-18 variant G3L, E6Q, D54Y, S55P, T63S, N91S, R104Q (ligand)
chain: YFLKLQSKLSVIRNLNDQVLFIDQGNRPLFEDMTDSDMRDNAPRTIFIISMYKYPQPRGMAVSISVKSEKISTLSSENKIISFKEMNPPDSIKDTKSDIIFFQQSVPGHDNKMQFESSSYEGYFLASEKERDLFKLILKKEDELGDRSIMFTVQNED
B2: IL-18 variant G3I, E6Q, N91M, R104Y (ligand)
chain: B1 chain with L3I, Y54D, P55S, S63T, S91M, Q104Y
B3: IL-18 variant G3Q, E6G, D54N, S55H, T63V, N91M, R104T (ligand)
chain: B1 chain with L3Q, Q6G, Y54N, P55H, S63V, S91M, Q104T
B4: IL-18 variant E6D, D54T, S55W, T63S, N91S, R104T (ligand)
chain: B1 chain with L3G, Q6D, Y54T, P55W, Q104T
B5: IL-18 variant G3Q, E6S, S55V, T63A, N91T (ligand)
chain: B1 chain with L3Q, Q6S, Y54D, P55V, S63A, S91T, Q104R
B6: IL-18 variant G3Q, E6N (ligand)
chain: B1 chain with L3Q, Q6N, Y54D, P55S, S63T, S91N, Q104R
B7: IL-18 variant G3I, E6D, D54A, S55F, N91Y, R104H (ligand)
chain: B1 chain with L3I, Q6D, Y54A, P55F, S63T, S91Y, Q104H
B8: IL-18 variant G3L, E6Q, T63S, N91L, R104T (ligand)
chain: B1 chain with Y54D, P55S, S91L, Q104T
B9: IL-18 variant G3Y, E6N, N91Y, R104S (ligand)
chain: B1 chain with L3Y, Q6N, Y54D, P55S, S63T, S91Y, Q104S
B10: IL-18 variant G3Q, E6H, D54N, S55I, T63S, N91V (ligand)
chain: B1 chain with L3Q, Q6H, Y54N, P55I, S91V, Q104R
B11: IL-18 variant G3S, E6G, D54V, S55K, T63S, N91Y, R104T (ligand)
chain: B1 chain with L3S, Q6G, Y54V, P55K, S91Y, Q104T
B12: IL-18 variant G3Q, E6N, D54Y, S55P, T63S, N91S, R104H (ligand)
chain: B1 chain with L3Q, Q6N, Q104H
B13: IL-18 variant G3D, E6Q, R27S, K53R, D54A, S55R, T63S, N91Q (ligand)
chain: B1 chain with L3D, R27S, K53R, Y54A, P55R, S91Q, Q104R

target: T1, IL-18 receptor (IL-18Rα and IL-18Rβ) (UniProt Q13478 19-541; O95256 20-599, limits assumed); assay: cell-based or functional assay
T1 sequence (looked up) 1: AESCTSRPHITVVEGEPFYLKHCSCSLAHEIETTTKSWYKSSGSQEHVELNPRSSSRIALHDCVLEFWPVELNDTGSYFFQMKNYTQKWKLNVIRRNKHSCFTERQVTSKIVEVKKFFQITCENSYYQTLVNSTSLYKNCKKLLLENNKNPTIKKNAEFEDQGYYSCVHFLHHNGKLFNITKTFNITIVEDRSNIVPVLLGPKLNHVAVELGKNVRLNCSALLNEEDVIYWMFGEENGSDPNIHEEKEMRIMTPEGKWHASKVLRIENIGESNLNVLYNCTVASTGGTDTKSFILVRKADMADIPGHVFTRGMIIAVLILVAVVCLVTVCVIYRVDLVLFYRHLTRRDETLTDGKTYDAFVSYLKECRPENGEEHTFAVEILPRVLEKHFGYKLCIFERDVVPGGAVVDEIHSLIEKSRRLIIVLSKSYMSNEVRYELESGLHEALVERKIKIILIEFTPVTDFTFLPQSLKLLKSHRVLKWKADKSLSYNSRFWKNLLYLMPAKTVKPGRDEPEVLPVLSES
T1 sequence (looked up) 2: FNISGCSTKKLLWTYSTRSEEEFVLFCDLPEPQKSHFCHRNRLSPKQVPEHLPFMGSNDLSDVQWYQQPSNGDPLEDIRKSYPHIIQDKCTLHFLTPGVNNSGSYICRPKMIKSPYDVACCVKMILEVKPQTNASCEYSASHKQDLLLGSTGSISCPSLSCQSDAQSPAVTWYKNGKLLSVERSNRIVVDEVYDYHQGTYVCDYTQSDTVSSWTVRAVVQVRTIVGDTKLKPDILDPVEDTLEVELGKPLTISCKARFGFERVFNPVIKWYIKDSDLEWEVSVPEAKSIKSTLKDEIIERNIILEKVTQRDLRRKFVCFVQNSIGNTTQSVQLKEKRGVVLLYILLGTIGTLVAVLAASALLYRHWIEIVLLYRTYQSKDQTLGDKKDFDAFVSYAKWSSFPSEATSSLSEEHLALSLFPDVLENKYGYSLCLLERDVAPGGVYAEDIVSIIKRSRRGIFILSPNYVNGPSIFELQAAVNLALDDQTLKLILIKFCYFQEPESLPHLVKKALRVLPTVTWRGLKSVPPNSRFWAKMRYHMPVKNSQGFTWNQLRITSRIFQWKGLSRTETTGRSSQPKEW

Compared with B1, B2 is lower in “EC50 (pM) - BP, HEK-blue re-screening” value: 1.35 pM for the first, 0.07 pM for the second.

First: B3
Second: B4
The “EC50 (pM) - BP, HEK-blue re-screening” value of the first is lower: 0.99 pM for the first, 3.42 pM for the second.

Going from B5 to B6, the “EC50 (pM) - BP, HEK-blue re-screening” value falls from 0.2 pM to 0.05 pM.

Going from B7 to B8, the “EC50 (pM) - BP, HEK-blue re-screening” value falls from 0.45 pM to 0.03 pM.

Compared with B9, B10 is higher in “EC50 (pM) - BP, HEK-blue re-screening” value: 0.09 pM for the first, 0.31 pM for the second.

First: B11
Second: B12
The “EC50 (pM) - BP, HEK-blue re-screening” value of the first is lower: 0.21 pM for the first, 9.63 pM for the second.

With B13 the “EC50 (pM) - BP, HEK-blue re-screening” value was 4.22 pM.

target: T2, interleukin 18 binding protein (IL-18BP) (UniProt O95998 31-194); assay: cell-based or functional assay
T2 sequence (looked up): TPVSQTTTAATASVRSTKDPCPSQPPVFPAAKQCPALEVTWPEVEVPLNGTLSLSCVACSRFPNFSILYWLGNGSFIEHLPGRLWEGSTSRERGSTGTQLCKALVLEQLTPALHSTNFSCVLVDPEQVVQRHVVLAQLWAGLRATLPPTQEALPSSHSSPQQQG

First: B1
Second: B2
The “EC50 (pM) + 100 nM BP, HEK-blue re-screening” value (“EC50 (pM) + 100 nM BP” for short) of the first is higher: 54.7 pM for the first, 3.77 pM for the second.

First: B3
Second: B4
The “EC50 (pM) + 100 nM BP” value of the first is lower: 2.66 pM for the first, 62.8 pM for the second.

Compared with B5, B6 is lower in “EC50 (pM) + 100 nM BP” value: 35.9 pM for the first, 8.61 pM for the second.

Compared with B7, B8 is lower in “EC50 (pM) + 100 nM BP” value: 3.41 pM for the first, 1.67 pM for the second.

Going from B9 to B10, the “EC50 (pM) + 100 nM BP” value rises from 2.89 pM to 5.23 pM.

First: B11
Second: B12
The “EC50 (pM) + 100 nM BP” value of the first is lower: 4.87 pM for the first, 34.7 pM for the second.

With B13 the “EC50 (pM) + 100 nM BP” value was 25.7 pM.

First: B1
Second: B2
The “Ratio (HEK-blue EC50, + 100 nM BP against - BP)” value (“Ratio” below) of the first is lower: 40.5 for the first, 53.9 for the second.

First: B3
Second: B4
The “Ratio” value of the first is lower: 2.7 for the first, 18.4 for the second.

Going from B5 to B6, the “Ratio” value falls from 180 to 172.

Compared with B7, B8 is higher in “Ratio” value: 7.6 for the first, 55.7 for the second.

First: B9
Second: B10
The “Ratio” value of the first is higher: 32.1 for the first, 16.9 for the second.

First: B11
Second: B12
The “Ratio” value of the first is higher: 23.2 for the first, 3.6 for the second.

With B13 the “Ratio” value was 6.1.
